In paper PMC10873203:

Target: recombinant extracellular domain of human insulin receptor (human)
Test: SDS-PAGE under non-reducing and reducing conditions (Coomassie); 0.5 µg ECD-IR in Laemmli buffer with or without 2.5% 2-mercaptoethanol, 80 °C 10 min

## recombinant extracellular domain of human insulin receptor
  stoichiometry N: 2
